System: rabbit EE
Assay: Barrier breaker search: rabbit EE in U-chambers, monitoring RT (marker of PCP) and Isc
Format: cell-based
Details: at pH 2
From the text: Agents that increase paracellular permeability (PCP) in EE are potential contributors to GERD by enabling diffusion of luminal acid into the intercellular space. Therefore, substances were sought within the refluxate, meals and inflammation that could ‘break the barrier’. This was done by exposing rabbit EE in U-chambers to candidate inflammatory agents while both monitoring RT, as a marker of PCP, and Isc (short circuit current), as a marker of active transport. The inflammatory agents were selected based on presence in EE or on reports that they can break the barrier in other epithelia (47-60).

B1: pepsin: barrier breaker identified at pH 2 (protein, UniProt P0DJD8 63-388, looked up)
Pepsin A-3: VDEQPLENYLDMEYFGTIGIGTPAQDFTVVFDTGSSNLWVPSVYCSSLACTNHNRFNPEDSSTYQSTSETVSITYGTGSMTGILGYDTVQVGGISDTNQIFGLSETEPGSFLYYAPFDGILGLAYPSISSSGATPVFDNIWNQGLVSQDLFSVYLSADDQSGSVVIFGGIDSSYYTGSLNWVPVTVEGYWQITVDSITMNGEAIACAEGCQAIVDTGTSLLTGPTSPIANIQSDIGASENSDGDMVVSCSAISSLPDIVFTINGVQYPVPPSAYILQSEGSCISGFQGMNLPTESGELWILGDVFIRQYFTVFDRANNQVGLAPVA
breaks the barrier (RT as marker of PCP): barrier breakers
